Patent US20110262445A1 (CEPHALON AUSTRALIA, published 2011)

Legend:
[1] = target: T1, human IL-12 (human, UniProt P29460 23-328; P29459 23-219); test: SPR, IgG on Protein A
T1 construct: Recombinant (Peprotech); FLAG-tagged IL-12 in the flow cytometry assays, biotinylated in the IL-12Rβ2 assay; also called hIL-12
T1 sequence 1: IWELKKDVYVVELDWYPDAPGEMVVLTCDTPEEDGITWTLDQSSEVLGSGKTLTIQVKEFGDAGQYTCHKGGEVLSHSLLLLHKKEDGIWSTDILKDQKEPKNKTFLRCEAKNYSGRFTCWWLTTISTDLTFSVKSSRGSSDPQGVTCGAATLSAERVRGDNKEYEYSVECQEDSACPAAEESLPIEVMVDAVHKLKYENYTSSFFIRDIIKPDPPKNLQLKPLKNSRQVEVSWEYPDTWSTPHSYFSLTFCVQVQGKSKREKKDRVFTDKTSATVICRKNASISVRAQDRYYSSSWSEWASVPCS
T1 sequence 2: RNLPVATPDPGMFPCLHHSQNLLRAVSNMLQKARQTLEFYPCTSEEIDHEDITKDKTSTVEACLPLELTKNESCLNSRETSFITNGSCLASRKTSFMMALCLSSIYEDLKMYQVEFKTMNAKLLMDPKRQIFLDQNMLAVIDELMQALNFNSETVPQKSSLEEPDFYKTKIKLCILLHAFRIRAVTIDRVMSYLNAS
Experimental: (§1) Using SPR technology the kₐ and kd and the KD of various humanized antibodies was determined.
(§2) Using a SPR 3000, Protein A was immobilized onto FC1 and FC2 (or alternatively FC3 and FC4) of a CM5 research grade sensor chip using amine coupling, giving approximately […] RU. FC1 was used a blank throughout the experiments. The experiments were run in HBS-P buffer (SPR). At a flow rate of 20 μl/min, 20 μl of 5 μg/mL of antibody was passed over FC2. IL-12, IL-23 or IL-12p40 (Peprotech) were passed over the surface of FC1 and FC2 at concentrations ranging from 66 nM to 2 nM. Regeneration of the surface was performed using 10 mM Glycine, pH 1.0. The sensorgram data from FC2 was subtracted from FC1 and a buffer only control. The curves were fitted using a 1:1 Langmuir equation to generate the kd, ka and KD values. All curves were fitted with a χ² of less then 2.0 where possible.

[2] = target: T2, human IL-23 (human, UniProt P29460 23-328; Q9NPF7 20-189); test: SPR, IgG on Protein A
T2 construct: Recombinant (Ebioscience); HIS-tagged in flow cytometry, biotinylated in some assays; also called hIL-23; rhIL-23
T2 sequence 1: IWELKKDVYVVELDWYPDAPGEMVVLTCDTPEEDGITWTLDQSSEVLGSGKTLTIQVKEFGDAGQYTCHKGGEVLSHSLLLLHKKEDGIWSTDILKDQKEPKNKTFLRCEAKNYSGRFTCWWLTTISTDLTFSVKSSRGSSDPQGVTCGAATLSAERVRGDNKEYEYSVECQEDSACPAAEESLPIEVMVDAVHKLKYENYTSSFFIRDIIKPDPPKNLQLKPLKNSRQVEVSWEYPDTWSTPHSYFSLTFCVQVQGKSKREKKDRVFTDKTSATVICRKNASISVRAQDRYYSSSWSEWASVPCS
T2 sequence 2: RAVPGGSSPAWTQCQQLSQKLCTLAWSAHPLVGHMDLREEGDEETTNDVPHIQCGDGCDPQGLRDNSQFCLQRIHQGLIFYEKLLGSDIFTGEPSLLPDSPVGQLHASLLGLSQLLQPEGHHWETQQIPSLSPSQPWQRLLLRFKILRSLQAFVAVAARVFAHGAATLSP
Experimental: as §1, §2

[3] = target: T2, human IL-23; test: ELISA, coated IL-23
Procedure, shortened: (§3)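 Maxisorp plates were coated overnight at 4° C with cytokine at 1 μg/mL in carbonate buffer pH 9.6, then blocked for 1 hour at 25° C with 1% BSA in PBS. Antibody titrations were allowed to bind for 1 hour at 25° C and detected with goat anti-human IgG or anti-murine immunoglobulin HRP (1:2000, 1 hour), followed by TMB development stopped with 1M HCl. Binding is reported as absorbance. Readings were taken at 450 nm against a 620 nm reference.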

[4] = target: T1, human IL-12; test: ELISA, coated IL-12
Procedure, shortened: as §3

Binder | Kd [1] | koff [1] | kon [1] | Kd [2] | koff [2] | kon [2] | binding result [3] | binding result [4]
Antibody 205 (antibody, human IgG1, kappa, V domains shown) VH: QVQLVQSGAEVKKPGASVKVSCKASGYTFTDYYLHWVRQAPGRGLEWMGWIDPENGDTEYAPKFQGRVTMTTDTSTSTAYMELRSLRSDDTAVYYCAANKELRYFDVWGQGTMVTVSS VL: EIVMTQSPATLSVSPGERATLSCRASQSISINLHWYQQKPGQAPRLLIYFASQSISGIPARFSGSGSGTEFTLTISSLQSEDFAVYYCQQSNSFPLTFGGGTKVEIKR | 0.157 nM | 0.000581 s⁻¹ | 3.7e+06 M⁻¹ s⁻¹ | 0.0862 nM | 0.000415 s⁻¹ | 4.81e+06 M⁻¹ s⁻¹ | – | –
Antibody 93 (antibody, human IgG1, kappa, V domains shown) VH: EVQLVQSGAEVKKPGATVKISCKASGYTFSDYYLHWVRQAPEKGLEWMGWIDPENGDTEYAPKFQGRVTITADTSTDTGYLELSSLRSEDTAVYYCNANKELRYFDVWGQGTLVTVSS VL: DIQMTQSPSSVSASVGDRVTITCRASQSISINLHWYQQKPGKAPKLLIYFASQSISGVPSRFSGSGSGTDFSLTINSLQPEDFARYYCQQSNSFPLTFGGGTKVEIKR | – | – | – | – | – | – | binds | binds
Antibody 94 (antibody, human IgG1, kappa, V domains shown) VH: EVQLVQSGAEVKKPGATVKISCKASGYTFSDYYLHWVRQAPEKGLEWMGWIDPENGDTEYAPKFQGRVTITADTSTDTGYLELSSLRSEDTAVYYCNRNKELRYFDVWGQGTLVTVSS VL: DIQMTQSPSSVSASVGDRVTITCRASQSISINLHWYQQKPGKAPKLLIYFASQSISGVPSRFSGSGSGTDFSLTINSLQPEDFARYYCQQSNSFPLTFGGGTKVEIKR | – | – | – | – | – | – | binds | no binding (tested: not given)
Antibody 97 (antibody, human IgG1, kappa) heavy chain: not shown light chain: DIQMTQSPSSVSASVGDRVTITCRASQSISINLHWYQQKPGKAPKLLIYFASQSISGVPSRFSGSGSGTDFSLTINSLQPEDFARYYCQQSNSFPLTFGGGTKVEIKRTVAAPSVFIFPPSDEQLKSGTASVVCLLNNFYPREAKVQWKVDNALQSGNSQESVTEQDSKDSTYSLSSTLTLSKADYEKHKVYACEVTHQGLSSPVTKSFNRGEC | – | – | – | – | – | – | binds | binds
Antibody 177 (antibody, human IgG1, kappa, V domains shown) VH: EVQLVQSGAEVKKPGATVKISCKASGYTFSDYYLHWVRQAPEKGLEWMGWIDPENGDTESAPKFQGRVTITADTSTDTGYLELSSLRSEDTAVYYCAANKELRYFDVWGQGTLVTVSS VL: DIQMTQSPSSVSASVGDRVTITCRASQSISINLHWYQQKPGKAPKLLIYFASQSISGVPSRFSGSGSGTDFSLTINSLQTEDFATYYCQQSNSFPLTFGGGTKVEIKR | 0.046 nM | 0.000212 s⁻¹ | 4.61e+06 M⁻¹ s⁻¹ | 0.0373 nM | 0.000128 s⁻¹ | 3.43e+06 M⁻¹ s⁻¹ | – | –
Antibody 180 (antibody, human IgG1, kappa, V domains shown) VH: EVQLVQSGAEVKKPGATVKISCKASGYTLSDYYLHWVRQAPEKGLEWMGWIDPENGDTESAPKFQGRVTITADTSTDTGYLELSSLRSEDTAVYYCAANKELRYFDVWGQGTLVTVSS VL: DIQMTQSPSSVSASVGDRVTITCRASQSISINLHWYQQKPGKAPKLLIYFASQSISGVPSRFSGSGSGTDFSLTINSLQTEDFATYYCQQSNSFPLTFGGGTKVEIKR | 0.0325 nM | 0.000173 s⁻¹ | 5.31e+06 M⁻¹ s⁻¹ | 0.0297 nM | 9.27e-05 s⁻¹ | 3.12e+06 M⁻¹ s⁻¹ | – | –
Antibody 181 (antibody, human IgG1, kappa, V domains shown) VH: EVQLVQSGAEVKKPGATVKISCKASGYTFSDYYLHWVRQAPEKGLEWMGWIDPENGDTEHAPKFQGRVTITADTSTDTGYLELSSLRSEDTAVYYCAANKELRYFDVWGQGTLVTVSS VL: DIQMTQSPSSVSASVGDRVTITCRASQSISINLHWYQQKPGKAPKLLIYFASQSISGVPSRFSGSGSGTDFSLTINSLQTEDFATYYCQQSNSFPLTFGGGTKVEIKR | 0.0681 nM | 0.000244 s⁻¹ | 3.57e+06 M⁻¹ s⁻¹ | 0.0424 nM | 0.000173 s⁻¹ | 4.09e+06 M⁻¹ s⁻¹ | – | –
Antibody 182 (antibody, human IgG1, kappa, V domains shown) VH: EVQLVQSGAEVKKPGATVKISCKASGYTLSDYYLHWVRQAPEKGLEWMGWIDPENGDTEHAPKFQGRVTITADTSTDTGYLELSSLRSEDTAVYYCAANKELRYFDVWGQGTLVTVSS VL: DIQMTQSPSSVSASVGDRVTITCRASQSISINLHWYQQKPGKAPKLLIYFASQSISGVPSRFSGSGSGTDFSLTINSLQTEDFATYYCQQSNSFPLTFGGGTKVEIKR | 0.0344 nM | 0.000214 s⁻¹ | 6.23e+06 M⁻¹ s⁻¹ | 0.0246 nM | 0.000129 s⁻¹ | 5.27e+06 M⁻¹ s⁻¹ | – | –
Antibody 190 (antibody, human IgG1, kappa, V domains shown) VH: QVQLVQSGAEVKKPGASVKVSCKASGYTFTDYYLHWVRQAPGQGLEWMGWIDPENGDTEYAPKFQGRVTMTTDTSTSTAYMELRSLRSDDTAVYYCNANKELRYFDVWGQGTMVTVSS VL: DIQMTQSPSSVSASVGDRVTITCRASQSISINLHWYQQKPGKAPKLLIYFASQSISGVPSRFSGSGSGTDFSLTINSLQTEDFATYYCQQSNSFPLTFGGGTKVEIKR | 0.217 nM | 0.00084 s⁻¹ | 3.86e+06 M⁻¹ s⁻¹ | 0.142 nM | 0.000609 s⁻¹ | 4.28e+06 M⁻¹ s⁻¹ | – | –
Antibody 192 (antibody, human IgG1, kappa, V domains shown) VH: QVQLVQSGAEVKKPGASVKVSCKASGYTLTDYYLHWVRQAPGQGLEWMGWIDPENGDTEYAPKFQGRVTMTTDTSTSTAYMELRSLRSDDTAVYYCAANKELRYFDVWGQGTMVTVSS VL: DIQMTQSPSSVSASVGDRVTITCRASQSISINLHWYQQKPGKAPKLLIYFASQSISGVPSRFSGSGSGTDFSLTINSLQTEDFATYYCQQSNSFPLTFGGGTKVEIKR | 0.0855 nM | 0.000356 s⁻¹ | 4.16e+06 M⁻¹ s⁻¹ | 0.0794 nM | 0.000211 s⁻¹ | 2.66e+06 M⁻¹ s⁻¹ | – | –
Antibody 193 (antibody, human IgG1, kappa, V domains shown) VH: QVQLVQSGAEVKKPGASVKVSCKASGYTFTDYYLHWVRQAPGQGLEWMGWIDPENGDTESAPKFQGRVTMTTDTSTSTAYMELRSLRSDDTAVYYCAANKELRYFDVWGQGTMVTVSS VL: DIQMTQSPSSVSASVGDRVTITCRASQSISINLHWYQQKPGKAPKLLIYFASQSISGVPSRFSGSGSGTDFSLTINSLQTEDFATYYCQQSNSFPLTFGGGTKVEIKR | 0.0794 nM | 0.000206 s⁻¹ | 2.6e+06 M⁻¹ s⁻¹ | – | – | – | – | –
Antibody 194 (antibody, human IgG1, kappa, V domains shown) VH: QVQLVQSGAEVKKPGASVKVSCKASGYTLTDYYLHWVRQAPGQGLEWMGWIDPENGDTESAPKFQGRVTMTTDTSTSTAYMELRSLRSDDTAVYYCAANKELRYFDVWGQGTMVTVSS VL: DIQMTQSPSSVSASVGDRVTITCRASQSISINLHWYQQKPGKAPKLLIYFASQSISGVPSRFSGSGSGTDFSLTINSLQTEDFATYYCQQSNSFPLTFGGGTKVEIKR | 0.0927 nM | 0.000194 s⁻¹ | 2.09e+06 M⁻¹ s⁻¹ | 0.041 nM | 0.000122 s⁻¹ | 2.99e+06 M⁻¹ s⁻¹ | – | –
Antibody 195 (antibody, human IgG1, kappa, V domains shown) VH: QVQLVQSGAEVKKPGASVKVSCKASGYTFTDYYLHWVRQAPGQGLEWMGWIDPENGDTEHAPKFQGRVTMTTDTSTSTAYMELRSLRSDDTAVYYCAANKELRYFDVWGQGTMVTVSS VL: DIQMTQSPSSVSASVGDRVTITCRASQSISINLHWYQQKPGKAPKLLIYFASQSISGVPSRFSGSGSGTDFSLTINSLQTEDFATYYCQQSNSFPLTFGGGTKVEIKR | 0.103 nM | 0.000274 s⁻¹ | 2.65e+06 M⁻¹ s⁻¹ | 0.05 nM | 0.000202 s⁻¹ | 4.03e+06 M⁻¹ s⁻¹ | – | –
Antibody 198 (antibody, human IgG1, kappa, V domains shown) VH: QVQLVQSGAEVKKPGASVKVSCKASGYAFTDYYLHWVRQAPGQGLEWMGWIDPENGDTEYAPKFQGRVTMTTDTSTSTAYMELRSLRSDDTAVYYCAANKELRYFDVWGQGTMVTVSS VL: DIQMTQSPSSVSASVGDRVTITCRASQSISINLHWYQQKPGKAPKLLIYFASQSISGVPSRFSGSGSGTDFSLTINSLQTEDFATYYCQQSNSFPLTFGGGTKVEIKR | 0.158 nM | 0.000594 s⁻¹ | 3.75e+06 M⁻¹ s⁻¹ | 0.0877 nM | 0.000409 s⁻¹ | 4.65e+06 M⁻¹ s⁻¹ | – | –
